Data reported in patent US7592168B2, “Cephalosporin C acylase mutant and method for preparing 7-ACA using same” (Sandoz AG, priority 2003, dated 2009).

System: [H][C@]12SCC(COC(C)=O)=C(C(=O)O)N1C(=O)[C@H]2NC(=O)CCC[C@@H](N)C(=O)O
Test: CPC hydrolysis kinetics (Lineweaver-Burk plot), fivefold mutant
Format: biochemical, Pseudomonas sp. SE83
Settings: other: substrate CPC, purified enzyme, 0.1 M Tris-HCl pH 8.0, 37° C.
Description: The enzyme activity of CPC acylase mutant to CPC was measured according to the method described by Park et al. with minor modifications as follows (Park, et al., Kor. J. Appl. Microbiol. Biotechnol. 23: 559-564, 1995). A substrate solution was prepared by dissolving CPC (purity 74.2%; CJ Corp., Korea) in 0.1 M Tris-HCl buffer solution (pH 8.0) at a concentration of 20 mg/ml and adjusting pH to 8 with 1 N NaOH. 20 μl of the CPC solution was mixed with 20 μl of the crude enzyme solution prepared above and the reaction mixture was incubated at 37° C. for 5 min. After the reaction, the mixture (200 μl) of 50 mM NaOH and 20% glacial acetic acid (1:2) was added thereto to stop the reaction. 200 μl of the supernatant recovered from the reaction mixture by centrifugation was mixed with 40 μl of 0.5% (w/v) PDAB (p-dimethylaminobenzaldehyde; Sigma, USA) dissolved in a methanol and the reaction mixture was incubated at 37° C. for 10 min. After the reaction, the absorbance of reaction mixture was measured at 415 nm and quantified by comparing with a calibration curve of standard material. […] Meanwhile, the specific activity of CPC acylase mutant for CPC was determined by measuring the amount of protein remaining in the enzyme solution according to the method described by Bradford (Bradford, M., Anal. Biochem. 72: 248-254, 1976) and representing it as an active unit corresponding to 1 mg of protein. […]

Substance: Pseudomonas sp. SE83 CPC acylase AcyII fivefold mutant F169αY/M31βL/F58βM/H70βS/I176βV (mI176) (Pseudomonas sp. SE83; F170Y/F297M/H309S/I415V/M270L)
- Km: 8 mM
